What was measured:
ICR mice [1] = test: Effect of anti-Aβ antibody pretreatment of AD patient CSF on mouse cognitive function impairment (Y-maze test, Example 5); format: in vivo; details: 10 μl intraventricular, FIG. 5
Experimental: For the purpose of evaluating a sample that more accurately reflects the actual clinical sample, the cognitive function of mice administered with an AD patient CSF pretreated with 6E4HV0LV0 was measured by Y-maze test.
6E4HV0LV0 was added to AD patient CSF (Precision Mod) to make the final concentration 1 ng/ml, 10 ng/ml, or 100 ng/ml, and the mixture was incubated at room temperature for about 1 hour.
Artificial cerebrospinal fluid [artificial spinal fluid (Otsuka Pharmaceutical Co., Ltd.) supplemented with 0.02 w/v % human serum albumin (Sigma-Aldrich)](hereinafter, “vehicle”) was added to AD patient CSF or physiological saline (hereinafter, “Sham”), and the mixture was incubated at room temperature. The prepared sample was preserved at −80° C., and used for the experiment after being thawed at room temperature on the day of the Y-maze testing.
The sample (10 μl each) was administered into the cerebral ventricles of ICR mice under isoflurane anesthesia, and each mouse was tested by Y-maze test in the same manner as in Example 1 to determine spontaneous alternation (%). Each sample was administrated in 5 μl dose into each the left and right cerebral ventricles of mice.
In the following, the sample with the AD patient CSF plus the vehicle will be identified by the notation “vehicle-AD CSF”. Similar notations are used for other samples.

ICR mice [2] = test: Effect of anti-Aβ antibody intravenous administration on mouse cognitive function impairment by AD patient CSF (Y-maze test, Example 4); format: in vivo; details: next day 10 μl AD patient CSF intraventricular, FIG. 4
Experimental: Next, mice that had intravenous administration of anti-Aβ oligomer antibody were measured for changes in cognitive function after AD patient CSF administration, using a Y-maze test. As the anti-Aβ oligomer antibody, an anti-Aβ oligomer humanized antibody 6E4HV0LV0 was produced according to the method disclosed in WO2011/016567 and known methods, and used in the experiment.
ICR mice were intravenously administered with 3 mg/kg of human IgG4 (Sigma-Aldrich), or 0.3 mg/kg, 1 mg/kg, or 3 mg/kg of 6E4HV0LV0.
On the next day, 10 μl of physiological saline (hereinafter, “Sham”) or the same amount of AD patient CSF (Precision Med) was administered into the cerebral ventricles of the mice under isoflurane anesthesia. Each mouse was then tested by Y-maze test in the same manner as in Example 1 to determine spontaneous alternation (%). The AD patient CSF and the physiological saline were administrated in 5 μl dose into each of the left and right cerebral ventricles.
In the following, mice that had intravenous administration of human IgG4, and intraventricular administration of Sham will be identified by using the notation “human IgG4 i.v.-Sham administered group.” Similar notations are used for mice administered with other samples.

ICR mice [3] = test: Blind measurement of changes in cognitive function of mice after 6E4HV0LV0 pretreatment of CSF (Y-maze test, Example 6); format: in vivo, mouse; details: for Percentage improvement by 6E4HV0LV0 treatment (%): 10 μl intraventricular; for improvement of spontaneous alternation by 6E4HV0LV0 pretreatment: 10 ng/ml
Experimental: The cognitive function of mice administered with multiple normal CSFs or AD patient CSFs was measured in blind experiment by performing a Y-maze test in the same manner as in Example 1. The effect of 6E4HV0LV0 pretreatment was also examined at the same time. The experiment was conducted by separating testers who is responsible for dispensing normal CSFs or AD patient CSFs and preparing a 6E4HV0LV0-pretreated AD patient CSF for blind experiment, and who is responsible for administering the samples to mice, and conducting the Y-maze test.
Tester (A) randomly assigned numbers to the dispensed normal CSFs (Precision Med) and AD patient CSFs (Precision Med) for blind experiment. For the AD patient CSFs, samples were also prepared by adding 6E4HV0LV0 to each dispensed CSF to make the final concentration 10 ng/ml, and incubating the mixture at room temperature for about 1 hour. The dispensed and prepared CSF samples were all preserved at −80° C. until the day of the Y-maze testing.
On the day of the Y-maze testing, tester (B) received the samples prepared by tester (A) for blind experiment, and thawed the samples at room temperature. Each sample (10 μl) or physiological saline (10 μl; hereinafter, “Sham”) was administered into the cerebral ventricles of ICR mice under isoflurane anesthesia, and the mice were tested by Y-maze test in the same manner as in Example 1 to determine spontaneous alternation (%). The sample and the physiological saline were administrated in 5 μl dose into each of the left and right cerebral ventricles of mice.
A Y-maze test that used the AD patient CSFs pretreated with 6E4HV0LV0 was conducted at the same time. Percentage improvement of mouse spontaneous alternation by 6E4HV0LV0 pretreatment was calculated for each mouse by using the Formula (3) below. The results are shown under the column heading “Percentage improvement by 6E4HV0LV0 treatment (%)” in Table 1. Percentage improvement (%) of mouse spontaneous alternation by 6E4HV0LV0 pretreatment={(spontaneous alternation of mouse administered with AD patient CSF pretreated with 6E4HV0LV0)−(spontaneous alternation of mouse administered with the same AD patient CSF without 6E4HV0LV0 pretreatment)}/{(spontaneous alternation of Sham administered group)−(spontaneous alternation of mouse administered with the same AD patient CSF without 6E4HV0LV0 pretreatment)}×100 Formula (3)

B1: 6E4HV0LV0: anti-Aβ oligomer humanized antibody, VH SEQ ID NO: 1, VL SEQ ID NO: 2, produced according to WO2011/016567 (antibody, V domains shown)
VH: QVQLVQSGAEVKKPGASVKVSCKASGYTFTSYWMHWVRQAPGQGLEWMGEINPRNGGTNNNENFKRRVTITADTSTSTAYMELSSLRSEDTAVYYCARDGNYDPFAYWGQGTLVTVSS
VL: DIVMTQSPLSLPVTPGEPASISCRSSQSLVHSNGNTYLHWYLQKPGQSPQLLIYKVSNRFSGVPDRFSGSGSGTDFTLKISRVEAEDVGVYYCSQSTHVPPYTFGQGTKLEIK
- spontaneous alternation compared to the vehicle-AD CSF administered group (ICR mice [1]; AD patient CSF pretreated at final concentration of 10 ng/ml or 100 ng/ml): higher
- spontaneous alternation compared to the vehicle-Sham administered group (ICR mice [1]; AD patient CSF pretreated at final concentration of 100 ng/ml): recovering to the same levels
- spontaneous alternation compared to the human IgG4 i.v.-AD CSF administered group (ICR mice [2]; 3 mg/kg i.v.): significantly higher
- spontaneous alternation compared to the human IgG4 i.v.-Sham administered group (ICR mice [2]; 3 mg/kg i.v.): recovering to the same levels
- spontaneous alternation, dose response (ICR mice [2]; 6E4HV0LV0 0.3, 1 or 3 mg/kg i.v.): increased with increase in the dose
- Percentage improvement by 6E4HV0LV0 treatment (%) (ICR mice [3]; AD patient CSF 8006_Visit 3 pretreated with 10 ng/ml): 80.2%
- Percentage improvement by 6E4HV0LV0 treatment (%) (ICR mice [3]; AD patient CSF 8014_Visit 4 pretreated with 10 ng/ml): 59.7%
- Percentage improvement by 6E4HV0LV0 treatment (%) (ICR mice [3]; AD patient CSF 8026_Visit 2 pretreated with 10 ng/ml): 14.5%
- Percentage improvement by 6E4HV0LV0 treatment (%) (ICR mice [3]; AD patient CSF 8029_Visit 2 pretreated with 10 ng/ml): −11.8%
- Percentage improvement by 6E4HV0LV0 treatment (%) (ICR mice [3]; AD patient CSF 8056_Visit 9 pretreated with 10 ng/ml): 86.8%
- Percentage improvement by 6E4HV0LV0 treatment (%) (ICR mice [3]; AD patient CSF 8057_Visit 8 pretreated with 10 ng/ml): 59.3%
- Percentage improvement by 6E4HV0LV0 treatment (%) (ICR mice [3]; AD patient CSF 8060_Visit 6 pretreated with 10 ng/ml): 46.0%
- Percentage improvement by 6E4HV0LV0 treatment (%) (ICR mice [3]; AD patient CSF 8061_Visit 5 pretreated with 10 ng/ml): 65.6%
- Percentage improvement by 6E4HV0LV0 treatment (%) (ICR mice [3]; AD patient CSF 8076_Visit 8 pretreated with 10 ng/ml): 68.3%
- Percentage improvement by 6E4HV0LV0 treatment (%) (ICR mice [3]; AD patient CSF 8091_Visit 5 pretreated with 10 ng/ml): 56.3%
- Percentage improvement by 6E4HV0LV0 treatment (%) (ICR mice [3]; AD patient CSF 8092_Visit 3 pretreated with 10 ng/ml): 87.7%
- Percentage improvement by 6E4HV0LV0 treatment (%) (ICR mice [3]; AD patient CSF 8108_Visit 6 pretreated with 10 ng/ml): 82.0%
- Percentage improvement by 6E4HV0LV0 treatment (%) (ICR mice [3]; AD patient CSF 8109_Visit 5 pretreated with 10 ng/ml): 90.7%
- Percentage improvement by 6E4HV0LV0 treatment (%) (ICR mice [3]; AD patient CSF 8189_Visit 3 pretreated with 10 ng/ml): 83.1%
- Percentage improvement by 6E4HV0LV0 treatment (%) (ICR mice [3]; AD patient CSF 8211_Visit 2 pretreated with 10 ng/ml): 90.0%
- improvement of spontaneous alternation by 6E4HV0LV0 pretreatment (ICR mice [3]; in 6 out of the 15 AD patient CSF samples): ≥ 40%
- improvement of spontaneous alternation by 6E4HV0LV0 pretreatment (ICR mice [3]; in 7 out of the 15 AD patient CSF samples): ≥ 80%
- effect of 6E4HV0LV0 pretreatment on cognitive function impairment by normal CSF (ICR mice [3]; the one normal CSF (1 out of 11) that impaired cognitive function): did not improve
